{
  "source": "paper PMC1065253",
  "binders": {"B1": {"name": "75 bp, two hemi-sites, 21 bp spacing (dsDNA)", "DNA 1": "CTGGGTATTAAAAAGAAGATCTATTTATGTTCAGTTCTGATCTGTTCTGTTCTCTTATTAGGCTCGCACTGCCCT", "DNA 2": "AGGGCAGTGCGAGCCTAATAAGAGAACAGAACAGATCAGAACTGAACATAAATAGATCTTCTTTTTAATACCCAG", "modifications": "hemi-methylated GATC (N6-methyladenine on one strand; which strand not stated)"}, "B2": {"name": "75 bp, two hemi-sites, 31 bp spacing (dsDNA)", "DNA 1": "B1 DNA 1 with A40T, T50A", "DNA 2": "B1 DNA 2 with A26T, T36A", "modifications": "hemi-methylated GATC (N6-methyladenine on one strand; which strand not stated)"}, "B3": {"name": "75 bp, two hemi-sites, 11 bp spacing (dsDNA)", "DNA 1": "B1 DNA 1 with T30A, A40T", "DNA 2": "B1 DNA 2 with T36A, A46T", "modifications": "hemi-methylated GATC (N6-methyladenine on one strand; which strand not stated)"}, "B4": {"name": "75 bp, two hemi-sites, 16 bp spacing (Fig 3A) (dsDNA)", "DNA 1": "B1 DNA 1 with G29T, T31A, C32G, T35A, A40T, G44A, C47G, T50A, C63A", "DNA 2": "B1 DNA 2 with G13T, A26T, G29C, C32T, T36A, A41T, G44C, A45T, C47A", "modifications": "hemi-methylated GATC (N6-methyladenine on one strand; which strand not stated)"}, "B5": {"name": "75 bp, two hemi-sites, 16 bp spacing (Fig 2E) (dsDNA)", "DNA 1": "B1 DNA 1 with T35A, A40T", "DNA 2": "B1 DNA 2 with T36A, A41T", "modifications": "hemi-methylated GATC (N6-methyladenine on one strand; which strand not stated)"}},
  "key": {"SeqA(E5,9K)": {"molecular_target": "T1, SeqA(E5,9K) (Escherichia coli, UniProt P0AFY8 1-181, E5K;E9K)", "T1 sequence": "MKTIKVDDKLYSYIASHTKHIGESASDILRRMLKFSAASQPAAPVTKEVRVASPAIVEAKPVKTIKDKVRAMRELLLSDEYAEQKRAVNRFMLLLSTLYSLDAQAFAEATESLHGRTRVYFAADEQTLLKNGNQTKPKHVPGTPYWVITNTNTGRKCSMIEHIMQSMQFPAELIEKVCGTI", "experiment": "EMSA"}, "SeqA(D7K)": {"molecular_target": "T2, SeqA(D7K) (Escherichia coli, UniProt P0AFY8 1-181, D7K)", "T2 sequence": "T1 sequence with K5E, D7K, K9E", "experiment": "EMSA"}, "SeqA [1]": {"molecular_target": "T3, SeqA (Escherichia coli, UniProt P0AFY8 1-181)", "T3 sequence": "T1 sequence with K5E, K9E", "experiment": "AFM"}, "SeqA(E9K)": {"molecular_target": "T4, SeqA(E9K) (Escherichia coli, UniProt P0AFY8 1-181, E9K)", "T4 sequence": "T1 sequence with K5E", "experiment": "EMSA"}, "SeqA(D8K)": {"molecular_target": "T5, SeqA(D8K) (Escherichia coli, UniProt P0AFY8 1-181, D8K)", "T5 sequence": "T1 sequence with K5E, D8K, K9E", "experiment": "EMSA"}, "SeqA(E5K)": {"molecular_target": "T6, SeqA(E5K) (Escherichia coli, UniProt P0AFY8 1-181, E5K)", "T6 sequence": "T1 sequence with K9E", "experiment": "EMSA"}, "SeqA [2]": {"molecular_target": "T3, SeqA", "experiment": "AFM", "remark": "listed apart in the source"}, "SeqA(T18G)": {"molecular_target": "T7, SeqA(T18G) (Escherichia coli, UniProt P0AFY8 1-181, T18G)", "T7 sequence": "T1 sequence with K5E, K9E, T18G", "experiment": "EMSA"}, "SeqA [3]": {"molecular_target": "T3, SeqA", "experiment": "EMSA"}},
  "note": "Substitutions are numbered along the chain they refer to.",
  "data": [
    {"binder": "B1", "values": [
      {"measurement": "binding result", "setting": "SeqA(E5,9K)", "value": "no binding"},
      {"measurement": "binding result", "setting": "SeqA(D7K)", "value": "no binding"},
      {"measurement": "binding result", "setting": "SeqA [1]", "value": "binds"},
      {"measurement": "binding result", "setting": "SeqA(E9K)", "value": "binds"},
      {"measurement": "binding result", "setting": "SeqA(D8K)", "value": "binds"},
      {"measurement": "binding result", "setting": "SeqA(E5K)", "value": "binds"}
    ]},
    {"binder": "B2", "values": [
      {"measurement": "binding result", "setting": "SeqA [2]", "value": "binds"}
    ]},
    {"binder": "B3", "values": [
      {"measurement": "binding result", "setting": "SeqA [2]", "value": "binds"}
    ]},
    {"binder": "B4", "values": [
      {"measurement": "binding result", "setting": "SeqA(T18G)", "value": "binds"},
      {"measurement": "binding result", "setting": "SeqA [3]", "value": "binds"}
    ]},
    {"binder": "B5", "values": [
      {"measurement": "binding result", "setting": "SeqA [2]", "value": "binds"}
    ]}
  ]
}
